Measurements reported in patent publication US20140271651A1.

Columns and labels:
[1] = molecular target: GP73-hFc (human GP73 amino acids 63 to 400 fused at the C-terminus to human IgG1 Fc) (human); test: sandwich EIA on GP73-hFc, coated NC, second antibody NC-Bt
[2] = molecular target: GP73-hFc (human GP73 amino acids 63 to 400 fused at the C-terminus to human IgG1 Fc) (human); test: sandwich EIA on GP73-hFc, coated 1A-3187, second antibody NC-Bt
[3] = molecular target: GP73-hFc (human GP73 amino acids 63 to 400 fused at the C-terminus to human IgG1 Fc) (human); test: sandwich EIA on GP73-hFc, coated 1A-4246, second antibody NC-Bt
[4] = molecular target: GP73-hFc (human GP73 amino acids 63 to 400 fused at the C-terminus to human IgG1 Fc) (human); test: sandwich EIA on GP73-hFc, coated 1B-3246, second antibody NC-Bt
[5] = molecular target: GP73-hFc (human GP73 amino acids 63 to 400 fused at the C-terminus to human IgG1 Fc) (human); test: sandwich EIA on GP73-hFc, coated 1B-3440, second antibody NC-Bt
[6] = molecular target: GP73-hFc (human GP73 amino acids 63 to 400 fused at the C-terminus to human IgG1 Fc) (human); test: sandwich EIA on GP73-hFc, coated 1B-4863, second antibody NC-Bt
[7] = molecular target: GP73-hFc (human GP73 amino acids 63 to 400 fused at the C-terminus to human IgG1 Fc) (human); test: sandwich EIA on GP73-hFc, coated 1B-4971, second antibody NC-Bt
[8] = molecular target: GP73-hFc (human GP73 amino acids 63 to 400 fused at the C-terminus to human IgG1 Fc) (human); test: sandwich EIA on GP73-hFc, coated NC, second antibody 1A-3187-Bt
[9] = molecular target: GP73-hFc (human GP73 amino acids 63 to 400 fused at the C-terminus to human IgG1 Fc) (human); test: sandwich EIA on GP73-hFc, coated NC, second antibody 1A-4246-Bt
[10] = molecular target: GP73-hFc (human GP73 amino acids 63 to 400 fused at the C-terminus to human IgG1 Fc) (human); test: sandwich EIA on GP73-hFc, coated NC, second antibody 1B-3246-Bt
[11] = molecular target: GP73-hFc (human GP73 amino acids 63 to 400 fused at the C-terminus to human IgG1 Fc) (human); test: sandwich EIA on GP73-hFc, coated NC, second antibody 1B-3440-Bt
[12] = molecular target: GP73-hFc (human GP73 amino acids 63 to 400 fused at the C-terminus to human IgG1 Fc) (human); test: sandwich EIA on GP73-hFc, coated NC, second antibody 1B-4863-Bt
[13] = molecular target: GP73-hFc (human GP73 amino acids 63 to 400 fused at the C-terminus to human IgG1 Fc) (human); test: sandwich EIA on GP73-hFc, coated NC, second antibody 1B-4971-Bt

GP73-hFc (human GP73 amino acids 63 to 400 fused at the C-terminus to human IgG1 Fc) (human), sequence (chain, as listed by the source limits assumed): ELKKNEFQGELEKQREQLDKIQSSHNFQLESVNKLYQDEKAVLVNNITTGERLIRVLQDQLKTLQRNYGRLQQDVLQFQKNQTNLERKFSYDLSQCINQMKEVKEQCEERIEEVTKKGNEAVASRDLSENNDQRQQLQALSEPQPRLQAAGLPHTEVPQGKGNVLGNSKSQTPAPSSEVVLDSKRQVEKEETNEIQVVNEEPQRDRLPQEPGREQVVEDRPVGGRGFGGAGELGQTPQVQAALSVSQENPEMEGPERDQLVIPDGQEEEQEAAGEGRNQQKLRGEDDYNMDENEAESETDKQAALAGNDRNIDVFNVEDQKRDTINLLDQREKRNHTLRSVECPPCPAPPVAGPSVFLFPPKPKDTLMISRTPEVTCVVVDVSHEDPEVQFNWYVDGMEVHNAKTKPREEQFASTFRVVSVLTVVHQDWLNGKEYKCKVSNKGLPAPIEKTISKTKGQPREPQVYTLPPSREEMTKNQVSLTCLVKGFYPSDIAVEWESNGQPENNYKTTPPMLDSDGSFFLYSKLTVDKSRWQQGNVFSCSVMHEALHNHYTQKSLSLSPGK

Question: Which results are given for negative control monoclonal antibody?
Answer: sandwich assay signal (A492) [1]: 0.06 A492; sandwich assay signal (A492) [2]: 0.06 A492; sandwich assay signal (A492) [3]: 0.08 A492; sandwich assay signal (A492) [4]: 0.06 A492; sandwich assay signal (A492) [5]: 3.07 A492; sandwich assay signal (A492) [6]: 0.06 A492; sandwich assay signal (A492) [7]: 0.06 A492; sandwich assay signal (A492) [8]: 0.09 A492; sandwich assay signal (A492) [9]: 0.05 A492; sandwich assay signal (A492) [10]: 0.05 A492; sandwich assay signal (A492) [11]: 0.05 A492; sandwich assay signal (A492) [12]: 0.05 A492; sandwich assay signal (A492) [13]: 0.06 A492
